The text below walks through data of patent US20210236614A1.

Values joined by “and” are separate entries in the source; they are usually repeats but may differ in a detail not shown here. Equal entries are not always repeated.

Holding throughout (assay): ELISA, His-PD1 on nickel plate, conjugate only control
Test [1] deals with His tagged canine PD1 (Sino) (canine).
Test [2] concerns the target His tagged mouse PD1 (Sino) (mouse) (UniProt Q02242).
For test [3], the target named is His tagged rat PD1 (Sino) (rat) (UniProt D3ZIN8).
Test [4] addresses His tagged rhesus monkey PD1 (Sino) (rhesus monkey) (UniProt B0LAJ2).

His tagged rhesus monkey PD1 (Sino) (rhesus monkey), sequence (B0LAJ2 entry or part of it limits assumed, form in doubt): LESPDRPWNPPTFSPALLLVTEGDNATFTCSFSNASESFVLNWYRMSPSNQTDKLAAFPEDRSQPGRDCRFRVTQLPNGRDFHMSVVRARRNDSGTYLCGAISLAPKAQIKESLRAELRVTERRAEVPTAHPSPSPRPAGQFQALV
His tagged mouse PD1 (Sino) (mouse), sequence (Q02242 25-167 limits assumed): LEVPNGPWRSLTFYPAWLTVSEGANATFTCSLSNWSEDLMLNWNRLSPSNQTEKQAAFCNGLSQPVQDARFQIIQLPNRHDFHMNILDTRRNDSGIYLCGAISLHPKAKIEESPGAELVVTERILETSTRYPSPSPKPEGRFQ
His tagged rat PD1 (Sino) (rat), sequence (D3ZIN8 entry or part of it limits assumed, form in doubt): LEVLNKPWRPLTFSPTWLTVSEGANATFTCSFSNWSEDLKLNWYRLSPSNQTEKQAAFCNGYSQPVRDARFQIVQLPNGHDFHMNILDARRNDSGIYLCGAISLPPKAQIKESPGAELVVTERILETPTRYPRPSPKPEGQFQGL

As for “horseradish peroxidase-labeled anti-rabbit antibody (conjugate only control)”, the OD is 0.059 OD and 0.06 OD in test [1]; 0.066 OD and 0.064 OD in test [2]; 0.055 OD in test [3]; 0.063 OD and 0.058 OD in test [4].
